Where “and” joins values, the source holds several entries; their conditions need not be identical. Identical values can stand only once. Entries after “also recorded” stand apart in the source; their conditions may differ.
How the values were obtained:
[1] = tested on: human colon cancer LS 180 xenografts; test: Human colon cancer xenograft model; assay type: in vivo, athymic nude Balb/c mice; conditions: LS 180 xenograft; for Tumor weight (X ± SD): n = 10
[2] = General condition of the mice during treatment; assay type: in vivo; conditions: mice with human cancer xenografts, during the treatment period
[3] = tested on: human leukemia HL 60(s) xenografts; test: Human leukemia xenograft model; assay type: in vivo, athymic nude Balb/c mice; conditions: HL 60(s) xenograft; for Tumor weight (X ± SD): n = 10
[4] = tested on: human melanoma A-375 xenografts; test: Human melanoma xenograft model; assay type: in vivo, athymic nude Balb/c mice; conditions: A-375 xenograft; for Tumor weight (X ± SD): n = 10
[5] = tested on: HL-60(S) lymphocytic cell line; test: Anti-proliferative assay, HL-60(S); assay type: cell-based, human
[6] = tested on: SW 1116 colorectal adenocarcinoma cell line; test: Anti-proliferative assay, SW 1116; assay type: cell-based, human
[7] = tested on: HeLa cervix adenocarcinoma cell line; test: Anti-proliferative assay, HeLa; assay type: cell-based, human
[8] = tested on: HuH-7 hepatoma cell line; test: Anti-proliferative assay, HuH-7; assay type: cell-based, human
[9] = tested on: human liver cancer Hep G2 xenografts; test: Human liver cancer xenograft model; assay type: in vivo, athymic nude Balb/c mice; conditions: 30 days; for Tumor weight (mean ± SD): n = 10
[10] = tested on: MKN 1 gastric adenocarcinoma cell line; test: Anti-proliferative assay, MKN 1; assay type: cell-based, human
[11] = tested on: HCT-8 colorectal adenocarcinoma cell line; test: Anti-proliferative assay, HCT-8; assay type: cell-based, human
[12] = tested on: Vesicular Stomatitis Virus (VSV) on WISH cells; assay type: cell-based; conditions: against VSV on WISH; units with reference to WHO international standards 94/786 and 95/650
[13] = tested on: IGR-1 melanoma cell line; test: Anti-proliferative assay, IGR-1; assay type: cell-based, human
[14] = tested on: Hep G2 hepatocellular carcinoma cell line; test: Anti-proliferative assay, Hep G2; assay type: cell-based, human; conditions: HepG2
[15] = tested on: PLC/PRF/5 hepatoma cell line; test: Anti-proliferative assay, PLC/PRF/5; assay type: cell-based, human
[16] = tested on: IPC-298 melanoma cell line; test: Anti-proliferative assay, IPC-298; assay type: cell-based, human
[17] = tested on: LS 180 colorectal adenocarcinoma cell line; test: Anti-proliferative assay, LS 180; assay type: cell-based, human
[18] = tested on: human prostate cancer PC-3 xenografts; test: Human prostate cancer xenograft model; assay type: in vivo, athymic nude Balb/c mice; conditions: PC-3 xenograft; for Inhibition rate / Tumor weight (mean ± SD): 30 days; for Tumor weight (mean ± SD): n = 10
Description: Colon cancer cell line (LS 180), melanoma cell line (A-375) and liver cancer cell line (Hep G2) were obtained from the American Type Culture Collection (ATCC, Rockville, Md.). Prostate cancer cell line (PC-3) was obtained from German National Resource Centre for Biological Material (DSMZ, Deutsche […] von Mikroorganismen and Zellkulturen, Germany). Lymphocytic cell line (HL 60(s) was purchased from Japanese Collection of Research Bioresources Cell Bank (JCRB, Japan). All cells were cultured according to their instructions (see Table 1). Briefly, LS 180 and Hep G2 were cultured in MEM medium. A-375 was cultured in DMEM. Both media were supplemented with 10% fetal bovine serum (FBS), 2 mM […] U/ml of penicillin, […] of streptomycin, 0.1 mM non-essential amino acids, and 1.0 mM sodium pyruvate. PC-3 and HL 60 (S) cells were cultured in RPMI 1640, supplemented with 10% FBS, 100 U/ml of penicillin, and […] of streptomycin. All cells were maintained in 5% CO2 atmosphere at 37° C. […] For the treatment of 5-FU, 30 mg/kg of 5-FU was i.v. administrated once every two days for a total of 5 times. The groups and treatment doses are summarized below: Once treatment commenced, tumors were measured with a caliper once a week. […] Mice were sacrificed at the day of treatment discontinuation (day 30 after commencement of the treatment). Solid tumors were isolated, photographed, and measured. […] C is the average tumor weight in control group after treatment.

[19] = tested on: IGR-37 melanoma cell line; test: Anti-proliferative assay, IGR-37; assay type: cell-based, human
[20] = tested on: Hep3B hepatocellular carcinoma cell line; test: Anti-proliferative assay, Hep3B; assay type: cell-based, human
[21] = tested on: KYSE 30 esophagus carcinoma cell line; test: Anti-proliferative assay, KYSE 30; assay type: cell-based, human
[22] = tested on: DU 145 prostate carcinoma cell line; test: Anti-proliferative assay, DU 145; assay type: cell-based, human
[23] = tested on: L-428 Hodgkin's lymphoma cell line; test: Anti-proliferative assay, L-428; assay type: cell-based, human
[24] = tested on: C-33A cervix carcinoma cell line; test: Anti-proliferative assay, C-33A; assay type: cell-based, human
[25] = tested on: PC-3 prostate carcinoma cell line; test: Anti-proliferative assay, PC-3; assay type: cell-based, human
[26] = tested on: DLD-1 colorectal adenocarcinoma cell line; test: Anti-proliferative assay, DLD-1; assay type: cell-based, human
[27] = tested on: A549 lung carcinoma cell line; test: Anti-proliferative assay, A549; assay type: cell-based, human
[28] = tested on: LS174T colorectal adenocarcinoma cell line; test: Anti-proliferative assay, LS174T; assay type: cell-based, human
[29] = tested on: A-375 melanoma cell line; test: Anti-proliferative assay, A-375; assay type: cell-based, human
[30] = 30 mg/kg (30,000 μg/kg) i.v. once every 2 days for 5 times

With `O=c1[nH]cc(F)c(=O)[nH]1` [5-FU, 5-Fluorouracil, reference compound] the Inhibition rate [1, 30] was 81.8%, the “Tumor weight (X ± SD)” value [1, 30] was 0.758 ± 0.227 g and the “general condition of treated mice (eating, behavior, weight loss)” value [2] was “significant weight loss and activity reduction; also recorded: showed typical changes of eating and behavior, and weight loss”. For the same molecule, the Inhibition rate [3, 30] was 76.0%, the “Tumor weight (X ± SD)” value [3, 30] was 0.893 ± 0.289 g and the Inhibition rate [4, 30] was 67.2%. For the same molecule, the “Tumor weight (X ± SD)” value [4, 30] was 1.004 ± 0.105 g.

B1: Novaferon: novel recombinant non-naturally occurring human interferon-like protein, 166 amino acids (SEQ ID No: 2), from Type I interferon shuffling library, expressed in E. coli (protein)
chain: CNLSQTHSLGSKRTLMLLAQMGKISLFSCLKDRHDFEFPQEEFDGNQFQKAQAISVLHELIQQTFNLFSTKESSAAWDEGLLDKFRTELYRQLNDLEACMMQEVGVEETPLMNADSILAVKKYFQRITLYLMEKKYSPCAWEVVRVEIMRSLSFSTNLQKRLRGKD
For B1, the “Fold (Novaferon/HuIFN-α2b), increased tumor cell inhibition” value [5] was 306 fold, the “Fold (Novaferon/HuIFN-α2b), increased tumor cell inhibition” value [6] was 222 fold and the “Fold (Novaferon/HuIFN-α2b), increased tumor cell inhibition” value [7] was 141 fold. For the same molecule, the “Fold (Novaferon/HuIFN-α2b), increased tumor cell inhibition” value [8] was 58 fold, the Inhibition rate ([1]; 1.25 μg/kg daily s.c., 28 days) was 75.0% and the “Tumor weight (X ± SD)” value ([1]; 1.25 μg/kg daily s.c., 28 days) was 1.043 ± 0.433 g. The Inhibition rate ([1]; 12.5 μg/kg daily s.c., 28 days) was 80.5%, the “Tumor weight (X ± SD)” value ([1]; 12.5 μg/kg daily s.c., 28 days) was 0.815 ± 0.221 g and the Inhibition rate ([1]; 125 μg/kg daily s.c., 28 days) was 92.5%. The “Tumor weight (X ± SD)” value ([1]; 125 μg/kg daily s.c., 28 days) was 0.314 ± 0.086 &&&@@@ g, the Inhibition rate ([9]; 1.25 μg/kg daily s.c.) was 63.4% and the average tumor volume ([9]; 1.25 μg/kg daily s.c.) was 783.2±270.0 mm^3. The “Tumor weight (mean ± SD)” value ([9]; 1.25 μg/kg daily s.c.) was 0.797 ± 0.397 g, the Inhibition rate ([9]; 12.5 μg/kg daily s.c.) was 85.3% and the average tumor volume ([9]; 12.5 μg/kg daily s.c.) was 439.3±414.3 mm^3. For the same molecule, the “Tumor weight (mean ± SD)” value ([9]; 12.5 μg/kg daily s.c.) was 0.321 ± 0.300 g, the Inhibition rate ([9]; 125 μg/kg daily s.c.) was 96.6% and the average tumor volume ([9]; 125 μg/kg daily s.c.) was 104.6±56.5 mm^3. For the same molecule, the “Tumor weight (mean ± SD)” value ([9]; 125 μg/kg daily s.c.) was 0.074±0.083 g and 0.074 ± 0.083***@ g, the “Fold (Novaferon/HuIFN-α2b), increased tumor cell inhibition” value [10] was 207 fold and the “general condition of treated mice (eating, behavior, weight loss)” value [2] was “did not induce weight loss, activity changes and other negative side-effects; also recorded: normal eating and activity behavior and no weight loss; also recorded: generally ate and behaved normally, and had no weight loss”. For the same molecule, the “Fold (Novaferon/HuIFN-α2b), increased tumor cell inhibition” value [11] was 212 fold, the anti-viral activity [12] was 2.5×10^9 IU/mg and the Inhibition rate ([3]; 1.25 μg/kg daily s.c., 21 days) was 43.8%. For the same molecule, the “Tumor weight (X ± SD)” value ([3]; 1.25 μg/kg daily s.c., 21 days) was 2.091 ± 0.653 g, the Inhibition rate ([3]; 12.5 μg/kg daily s.c., 21 days) was 55.2% and the “Tumor weight (X ± SD)” value ([3]; 12.5 μg/kg daily s.c., 21 days) was 1.668 ± 0.665 g. The Inhibition rate ([3]; 125 μg/kg daily s.c., 21 days) was 80.4%, the “Tumor weight (X ± SD)” value ([3]; 125 μg/kg daily s.c., 21 days) was 0.729 ± 0.332***@ g and the “Fold (Novaferon/HuIFN-α2b), increased tumor cell inhibition” value [13] was 876 fold. The “Fold (Novaferon/HuIFN-α2b), increased tumor cell inhibition” value [14] was 43 fold, the “Fold (Novaferon/HuIFN-α2b), increased tumor cell inhibition” value [15] was 16 fold and the “Fold (Novaferon/HuIFN-α2b), increased tumor cell inhibition” value [16] was 70 fold. The “Fold (Novaferon/HuIFN-α2b), increased tumor cell inhibition” value [17] was 350 fold, the Inhibition rate ([18]; 1.25 μg/kg daily s.c.) was 35.0% and the “Tumor weight (mean ± SD)” value ([18]; 1.25 μg/kg daily s.c.) was 1.266 ± 0.457 g. For the same molecule, the Inhibition rate ([18]; 12.5 μg/kg daily s.c.) was 61.0%, the “Tumor weight (mean ± SD)” value ([18]; 12.5 μg/kg daily s.c.) was 0.759 ± 0.574 g and the Inhibition rate ([18]; 125 μg/kg daily s.c.) was 95.3% and 95.1%. The “Tumor weight (mean ± SD)” value ([18]; 125 μg/kg daily s.c.) was 0.09±0.081 g and 0.091±0.081 g and 0.091 ± 0.081***@@@ g, the “average volume of tumor mass” value ([18]; 125 μg/kg daily s.c., day 28) was 107.9±68.7 mm^3 and the “average volume of tumor mass” value ([18]; 125 μg/kg daily s.c., day 30) was 122.1±100.7 mm^3. The “Fold (Novaferon/HuIFN-α2b), increased tumor cell inhibition” value [19] was 109 fold, the “Fold (Novaferon/HuIFN-α2b), increased tumor cell inhibition” value [20] was 58 fold and the “Fold (Novaferon/HuIFN-α2b), increased tumor cell inhibition” value [21] was 683 fold. The “Fold (Novaferon/HuIFN-α2b), increased tumor cell inhibition” value [22] was 36 fold, the Inhibition rate ([4]; 1.25 μg/kg daily s.c.) was 40.1% and the “Tumor weight (X ± SD)” value ([4]; 1.25 μg/kg daily s.c., 30 days (28 days in the source)) was 1.830 ± 0.289 g. For the same molecule, the Inhibition rate ([4]; 12.5 μg/kg daily s.c.) was 75.0%, the “Tumor weight (X ± SD)” value ([4]; 12.5 μg/kg daily s.c., 30 days (28 days in the source)) was 0.763±0.187 g and 0.763 ± 0.187***&& $$$ g and the Inhibition rate ([4]; 125 μg/kg daily s.c.) was 82.8%. For the same molecule, the “Tumor weight (X ± SD)” value ([4]; 125 μg/kg daily s.c., 30 days (28 days in the source)) was 0.527±0.149 g and 0.527 ± 0.149***&&&@@@ g, the “Fold (Novaferon/HuIFN-α2b), increased tumor cell inhibition” value [23] was 1134 fold and the “Fold (Novaferon/HuIFN-α2b), increased tumor cell inhibition” value [24] was 143 fold. The “Fold (Novaferon/HuIFN-α2b), increased tumor cell inhibition” value [25] was 128 fold, the “Fold (Novaferon/HuIFN-α2b), increased tumor cell inhibition” value [26] was 282 fold and the “Fold (Novaferon/HuIFN-α2b), increased tumor cell inhibition” value [27] was 19 fold. For the same molecule, the “Fold (Novaferon/HuIFN-α2b), increased tumor cell inhibition” value [28] was 74 fold and the “Fold (Novaferon/HuIFN-α2b), increased tumor cell inhibition” value [29] was 733 fold.
